Assay [1] deals with T1, FGFR1b (human, UniProt P11362-19 22-376, limits assumed).
T1 construct: soluble protein in SPR and ELISA, whole receptor on L6 cells in the luciferase assay
T1 sequence (looked up): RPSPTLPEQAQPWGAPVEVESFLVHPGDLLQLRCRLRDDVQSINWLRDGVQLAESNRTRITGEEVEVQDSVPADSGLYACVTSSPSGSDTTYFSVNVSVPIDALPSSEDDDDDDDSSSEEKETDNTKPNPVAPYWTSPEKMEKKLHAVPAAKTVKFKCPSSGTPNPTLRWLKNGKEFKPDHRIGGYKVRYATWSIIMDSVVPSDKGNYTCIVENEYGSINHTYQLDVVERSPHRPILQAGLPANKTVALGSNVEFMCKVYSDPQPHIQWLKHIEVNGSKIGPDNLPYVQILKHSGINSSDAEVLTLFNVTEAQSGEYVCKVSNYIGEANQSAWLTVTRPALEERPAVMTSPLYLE
Nature of the assay: SPR (BIACORE T100), antibody captured by anti-human Fc on a CM5 chip, FGFR1 ECD protein injected, 25 °C, 1:1 Langmuir fit.

Assay [2] addresses T2, human KLB / human FGFR1c complex on cells (human, UniProt Q86Z14 53-1044; P11362 22-822).
T2 construct: both receptors co-expressed on HEK293 (or L6) cells; also called FGFR1c/KLB complex; 293huKLB/huR1c
The experiment in a line: radiolabeled ligand competition binding (iodinated FGF21) on HEK293 cells expressing human FGFR1c and human KLB.
Experimental: For the radioligand cell binding assay, HEK293 cells that stably co-expressing KLB and/or FGFR1c were placed into 96-well plate at a density of 100,000 to 200,000 cells per 0.2 mL in binding buffer (DMEM with 1% bovine serum albumin (BSA), 50 mM HEPES, pH 7.2, 0.1% sodium azide and 350 mM human IgG). […] Competition reactions with cells were incubated for 2 h at room temperature.

The target in assay [3] is T2, human KLB / human FGFR1c complex on …. The experiment in a line: cell-based or functional assay.

B1: YW182.2 (antibody, V domains shown)
VH: EVQLVESGGGLVQPGGSLRLSCAASGFTFTSTWISWVRQAPGKGLEWVGEIDPYDGDTYYADSVKGRFTISADTSKNTAYLQMNSLRAEDTAVYYCATEHFDAWVHYYVMDYWGQGTLVTVSS
VL: DIQMTQSPSSLSASVGDRVTITCRASQDVSTAVAWYQQKPGKAPKLLIYSASFLYSGVPSRFSGSGSGTDFTLTISSLQPEDFATYYCQQSYTTPPTFGQGTKVEIK
For B1, in assay [1], the equilibrium dissociation constant (Kd) was determined as 1.13 nM, the koff is 0.0022 s⁻¹ and the kon was determined as 1.9e+06 M⁻¹ s⁻¹.

B2: hFGF21 (ligand, human, UniProt Q9NSA1 29-209, looked up)
chain: HPIPDSSPLLQFGGQVRQRYLYTDDAQQTEAHLEIREDGTVGGAADQSPESLLQLKALKPGVIQILGVKTSRFLCQRPDGALYGSLHFDPEACSFRELLLEDGYNVYQSEAHGLPLHLPGNKSPHRDPAPRGPARFLPLPGLPPALPEPPGILAPQPPDVGSSDPLSMVGPSQGRSPSYAS
notes: also called recombinant FGF21
On to B2, for which the Kd in assay [2] was 5.3 nM. Moreover, the “EC50 in GAL-ELK1 assay in HEK293 cells” value in assay [3] worked out at 4.7 nM.

The values are drawn from patent US20220064331A1 (Genentech, published 2022).
